The text below walks through data of article PMC3246388 (Biomacromolecules, 2011).

The data set concerns the molecule itself. The experiment in a line: SEC + other: dynamic light scattering + other: transmission electron microscopy.

B1: bacteriophage Qβ coat protein, assembled as the recombinant virus-like particle (natural protein)
chain: MAKLETVTLGNIGKDGKQTLVLNPRGVNPTNGVASLSQAGAVPALEKRVTVSVSQPSRNRKNYKVQVKIQNPTACTANGSCDPSVTRQAYADVTFSFTQYSTDEERAFVRTELAALLASPLLIDAIDQLNPAY
As for B1, the binding result was “binds”.
